Measurements as given in patent US20120082676A1 (RESEARCH FOUNDATION OF STATE UNIVERSITY OF NEW YORK, published 2012).

T1: high molecular weight kininogen (HK) (UniProt P01042 19-644)
T1 sequence (looked up): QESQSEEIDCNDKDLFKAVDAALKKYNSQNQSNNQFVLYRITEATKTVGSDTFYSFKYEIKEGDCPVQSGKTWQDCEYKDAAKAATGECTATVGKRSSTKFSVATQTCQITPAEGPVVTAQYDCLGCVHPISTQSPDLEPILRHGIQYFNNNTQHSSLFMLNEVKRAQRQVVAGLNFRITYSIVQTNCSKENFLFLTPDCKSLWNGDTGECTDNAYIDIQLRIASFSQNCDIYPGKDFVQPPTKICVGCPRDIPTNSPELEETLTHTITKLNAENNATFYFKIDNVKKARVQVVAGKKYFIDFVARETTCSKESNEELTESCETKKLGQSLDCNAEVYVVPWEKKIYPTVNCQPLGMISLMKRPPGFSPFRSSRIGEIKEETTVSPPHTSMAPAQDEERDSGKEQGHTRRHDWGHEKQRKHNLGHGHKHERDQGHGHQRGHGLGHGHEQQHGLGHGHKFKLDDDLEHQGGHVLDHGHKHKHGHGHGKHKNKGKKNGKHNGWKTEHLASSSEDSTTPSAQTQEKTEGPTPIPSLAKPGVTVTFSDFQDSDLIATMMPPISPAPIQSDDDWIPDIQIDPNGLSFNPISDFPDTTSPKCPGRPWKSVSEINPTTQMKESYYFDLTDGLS

B1: gC1q-R deletion mutant lacking residues 204-218 (receptor, human, UniProt Q07021 74-282, looked up)
chain: LHTDGDKAFVDFLSDEIKEERKIQKHKTLPKMSGGWELELNGTEAKLVRKVAGEKITVTFNINNSIPPTFDGEEEPSQGQKVEEQEPELTSTPNFVVEVIKNDDGKKALVLDCHYPEDEVGQEDEAESDIWKDTNYTLNTDSLDWALYDHLMDFLADRGVDNTFADELVELSTALEHQEYITFLEDLKSFVKSQ
notes: also called mutant lacking these residues

Legend:
[1] = target: T1, high molecular weight kininogen (HK); assay: solid phase ELISA, peptide on the plate
Excerpt: Several peptides were synthesized that correspond with the gC1q-R domains of very high negative charge and, which based on their location in the crystal structure on the solution-face, are hypothesized to interact with solution-phase ligands.

[2] = target: T1, high molecular weight kininogen (HK); assay: HK binding to recombinant gC1q-R deletion mutants (FIG. 7)

| Binder | binding result [1] | binding result [2] |
| --- | --- | --- |
| EDEVGQEDEAESD (Synthetic peptide coated on ELISA wells) [gC1q-R peptide (amino acids 190-202)] | binds | – |
| B1 | – | no binding |
